Reference: patent US12673101B2, “Varicella zoster” (ADJUVANCE TECHNOLOGIES, INC., priority 2019, dated 2026)
Counter-ions that a name gives are not always drawn.

Legend:
Assay type in all cases: in vivo, Varicella zoster virus
gE antigen [1] = test: Mice immunized with gE, TQL-1055 choline salt with or without PHAD liposomes (Example 2): anti-gE IgG endpoint titers
Description: The impact of TQL-1055 choline salt (Compound I-4 choline salt) on antibody titers induced by gE antigen was tested. Mice were immunized with gE (5 mcg) alone, gE (5 mcg) with liposomes containing PHAD (5 mcg), gE (5 mcg) with liposomes containing PHAD (5 mcg) and TQL-1055 choline salt (five groups: 5 mcg, 10 mcg, 20 mcg, 40 mcg, 80 mcg), and gE (5 mcg) with TQL-1055 choline salt (five groups: 5 mcg, 10 mcg, 20 mcg, 40 mcg, 80 mcg). Mice were immunized at Day 0 and Day 14. Groups were bled at Day 13 (post Dose 1) and Day 28 (post Dose 2) for serum analysis.

gE antigen [2] = test: Mice immunized with gE and liposomal adjuvant (Example 1): gE-specific total IgG2c titers; settings: post dose 1, 50 mcg TQL-1055 free acid with PHAD liposomes
Description: (§1) The impact of TQL-1055 free acid (Compound I-4 free acid) on antibody titers induced by gE antigen was tested. Mice were immunized with gE (5 mcg) alone, gE (5 mcg) with blank liposomes, gE (5 mcg) with liposomes containing PHAD (7.5 mcg), gE (5 mcg) with liposomes containing PHAD (7.5 mcg) and TQL-1055 free acid (four groups: 5 mcg, 15 mcg, 30 mcg, 50 mcg), and gE (5 mcg) with liposomes containing MPL® (7.5 mcg) and QS-21 (5 mcg). Mice were immunized at Day 0 and Day 14. Groups were bled at Day 14 (post Dose 1) and Day 28 (post Dose 2) for serum analysis for anti-gE specific antibody response.
(§2) Log 10 transformed GMT were compared using One-way ANOVA. Groupwise comparisons were made and p-values adjusted for multiple comparisons with Tukey's post-hoc test. Groups 1 and 2 were excluded from the analysis. Family-wise α=0.05.

gE antigen [3] = test: Mice immunized with gE and liposomal adjuvant (Example 1): gE-specific total IgG1 titers
Description: as §1, §2

gE antigen [4] = test: Mice immunized with gE and liposomal adjuvant (Example 1): gE-specific total IgG titers
Description: as §1, §2

gE antigen [5] = test: Mice immunized with gE, oil-in-water emulsion (L2), TQL-1055 and PHAD liposomes (Example 3): anti-gE IgG endpoint titers; settings: mice immunized Day 0 and Day 14
Description: The impact of an oil-in-water emulsion containing TQL-1055 free acid (Compound I-4 free acid), TQL-1055 choline salt (Compound I-4 choline salt), PHAD liposomes, and combinations thereof on antibody titers induced by gE antigen was tested. Mice were immunized with PBS alone, gE (5 mcg) alone, gE (5 mcg) in an oil-in-water emulsion (L2), gE (5 mcg) and TQL-1055 choline salt (three groups: 5 mcg, 30 mcg, 100 mcg), gE (5 mcg) in an oil-in-water emulsion (L2) with TQL-1055 free acid (three groups: 5 mcg, 30 mcg, 100 mcg), gE (5 mcg) in an oil-in-water emulsion (L2) with TQL-1055 free acid (three groups: 5 mcg, 30 mcg, 100 mcg) and PHAD liposomes (20 mcg), and gE (5 mcg) with PHAD liposomes (20 mcg). Mice were immunized at Day 0 and Day 14. Groups were bled at Day 13 (post Dose 1) and Day 28 (post Dose 2) for serum analysis.

[6] = mice immunized Day 0 and Day 14, serum Day 28 (post Dose 2)

CC1O[C@@H](OC2C(O)[C@@H](NC(=O)CCCCCCCCCCC(=O)O)C(CO)O[C@H]2OC(=O)[C@]23CCC(C)(C)CC2C2=CCC4C5(C)CC[C@H](O)C(C)(C=O)C5CCC4(C)[C@]2(C)CC3O)C(O)C(O)[C@H]1O[C@@H]1OC[C@@H](O)C(O)C1O (stereo partly shown) [TQL-1055 choline salt]
titers compared to groups including TQL-1055 free acid (Example 1) (gE antigen [1]; after the first dose): trend to higher titers | titers compared to groups including TQL-1055 free acid (Example 1) (gE antigen [1]; after the second dose): trend to higher titers

CC1O[C@@H](OC2C(O)[C@@H](NC(=O)CCCCCCCCCCC(=O)O)C(CO)O[C@H]2OC(=O)[C@]23CCC(C)(C)CC2C2=CCC4C5(C)CC[C@H](O)C(C)(C=O)C5CCC4(C)[C@]2(C)CC3O)C(O)C(O)[C@H]1O[C@@H]1OC[C@@H](O)C(O)C1O (stereo partly shown) [TQL-1055 free acid]
gE-specific IgG2c GMT compared to Group 7 (gE antigen [2]): significantly higher | gE-specific IgG1 GMT compared to Group 7 (gE antigen [3]; mice, post dose 1, 50 mcg TQL-1055 free acid with PHAD liposomes): significantly higher | gE-specific total IgG GMT compared to Group 7 (gE antigen [4]; mice, post dose 2, 50 mcg TQL-1055 free acid with PHAD liposomes, not statistically significant): trended higher

B1: 5 mcg gE alone: VZV glycoprotein E (gE) antigen, 5 mcg, without adjuvant (protein, UniProt P09259 31-623, looked up)
Envelope glycoprotein E: SVLRYDDFHTDEDKLDTNSVYEPYYHSDHAESSWVNRGESSRKAYDHNSPYIWPRNDYDGFLENAHEHHGVYNQGRGIDSGERLMQPTQMSAQEDLGDDTGIHVIPTLNGDDRHKIVNVDQRQYGDVFKGDLNPKPQGQRLIEVSVEENHPFTLRAPIQRIYGVRYTETWSFLPSLTCTGDAAPAIQHICLKHTTCFQDVVVDVDCAENTKEDQLAEISYRFQGKKEADQPWIVVNTSTLFDELELDPPEIEPGVLKVLRTEKQYLGVYIWNMRGSDGTSTYATFLVTWKGDEKTRNPTPAVTPQPRGAEFHMWNYHSHVFSVGDTFSLAMHLQYKIHEAPFDLLLEWLYVPIDPTCQPMRLYSTCLYHPNAPQCLSHMNSGCTFTSPHLAQRVASTVYQNCEHADNYTAYCLGISHMEPSFGLILHDGGTTLKFVDTPESLSGLYVFVVYFNGHVEAVAYTVVSTVDHFVNAIEERGFPPTAGQPPATTKPKEITPVNPGTSPLLRYAAWTGGLAAVVLLCLVIFLICTAKRMRVKAYRVDKSPYNQSMYYAGLPVDDFEDSESTDTEEEFGNAIGGSHGGSSYTVYIDKTR
gE-specific total IgG1 titers post dose 2, GMT (gE antigen [3]; [6]): 793.1 | gE-specific total IgG titers post dose 1, Geometric mean (gE antigen [5]; serum Day 13 (post Dose 1)): 138.0 | gE-specific total IgG titers post dose 2, Geometric mean (gE antigen [5]; serum Day 28 (post Dose 2)): 5012 | gE-specific total IgG titers post dose 2, GMT (gE antigen [4]; [6]): 949.8 | Day 13 Anti-gE GMT titer, 5 mcg PHAD in liposomes (gE antigen [1]; Day 13 (post Dose 1), with 5 mcg PHAD in liposomes): 19,037 | Day 13 Anti-gE GMT titer, without PHAD liposomes (gE antigen [1]; Day 13 (post Dose 1), without PHAD liposomes): 135 | Day 28 Anti-gE GMT titer, 5 mcg PHAD in liposomes (gE antigen [1]; Day 28 (post Dose 2), with 5 mcg PHAD in liposomes): 689,865 | Day 28 Anti-gE GMT titer, without PHAD liposomes (gE antigen [1]; Day 28 (post Dose 2), without PHAD liposomes): 12,311
